We go through one molecule from PMC7901142 (The Journal of Cell Biology, 2021).

The assay addresses SNX27-PDZ WT (human, UniProt Q96L92 43-136). The assay can be described thus: ITC.

Broadly, the Kd is the free concentration of one partner at which half of the binding sites on the other are occupied at equilibrium, for simple one-to-one binding.

B1: SEMA4C (aa 686–833) (domain or fragment)
chain: LRRRLREELEKGAKATERTLVYPLELPKEPTSPPFRPCPEPDEKLWDPVGYYYSDGSLKIVPGHARCQPGGGPPSPPPGIPGQPLPSPTRLHLGGGRNSNANGYVRLQLGGEDRGGLGHPLPELADELRRKLQQRQPLPDSNPEESSV
For the molecule B1, binding was characterised by a dissociation constant (Kd) of 4.5 µM.
